B1: LEFTY1: left-right determination factor 1, secreted TGF-β superfamily protein; generic LEFTY may mean LEFTY1 or LEFTY2 (protein, UniProt O75610 77-366, looked up)
Left-right determination …: RFSQSFREVAGRFLALEASTHLLVFGMEQRLPPNSELVQAVLRLFQEPVPKAALHRHGRLSPRSARARVTVEWLRVRDDGSNRTSLIDSRLVSVHESGWKAFDVTEAVNFWQQLSRPRQPLLLQVSVQREHLGPLASGAHKLVRFASQGAPAGLGEPQLELHTLDLGDYGAQGDCDPEAPMTEGTRCCRQEMYIDLQGMKWAENWVLEPPGFLAYECVGTCRQPPEALAFKWPFLGPRQCIASETDSLPMIVSIKEGGRTRPQVVSLPNMRVQKCSCASDGALVPRRLQP
B2: BMP7: bone morphogenetic protein 7, BMPR2 ligand (protein)
chain: STGSKQRSQNRSKTPKNQEALRMANVAENSSSDQRQACKKHELYVSFRDLGWQDWIIAPEGYAAYYCEGECAFPLNSYMNATNHAIVQTLVHFINPETVPKPCCAPTQLNAISVLYFDDSSNVILKKYRNMVVRACGCH

Columns and labels:
mammary epithelial cells [1] = assay: Mammary outgrowth formation on transplantation (ELDA); assay type: in vivo, mouse; conditions: primary transplantation
Description: FIGS. 10A-10G. Mammary epithelial cells rely on LEFTY1 for their long-term proliferation potential. FIG. 10A is a schematic representation of the procedure used to inject control, LEFTY1- or BMP7-expressing mammary fibroblasts into the proximity of the mammary gland of 14-18 weeks old NSG female mice. Two to three weeks later, the mammary epithelial cells were isolated and injected in a limiting dilution fashion into weaning age […] mice to assess their engraftment potential. […] The next day, the transduced cells were injected in the cleared fat-pads of weaning age mice in order to test their exogenous mammary epithelial repopulation ability. […]
FIGS. 11A-11F. […] The number of positive outgrowths from the total of transplanted glands are shown, as well as the frequency and 95% CI of engrafting cells calculated by ELDA. […] The frequency and 95% CI was calculated using extreme limiting dilution analysis (ELDA). […]
Alteration of signaling pathways such as Wnt, Hedgehog and Notch results in branching phenotypes that may be linked to the frequency of cells that can be transplanted and originate mammary ducts in recipient mice (Lu & Werb, Science 322, 1506-1509 (2008)). We transplanted endogenous mammary epithelial cells that had been exposed to LEFTY1 or BMP7 for ^˜15 days in vivo and assessed ductal outgrowth formation upon transplantation into secondary recipients (FIG. 10A). […]

pSMAD5 = pSMAD5 immunofluorescence in MDA-MB-231; assay type: cell-based; conditions: 50 ng/mL BMP7 30 minutes, absence or presence of LEFTY 200 ng/mL
Protocol: (§1) FIGS. 20 and 21 are data from an experiment in which the breast cancer cell line MDA-MB-231 was plated and serum starved for 24 hours. 50 ng/mL BMP7 was added for 30 minutes to activate pSMAD5, either in the absence or presence of exogenous LEFTY (200 ng/mL). LEFTY-BMPR2 interaction, BMP7-BMPR2 interaction (as visualized by Proximity Ligation Assay, red), pSMAD5 status (As visualized by Immunofluorescence, green) were monitored and captured.
as §1, with “Breast” for “FIGS. 20 and 21 are data from an experiment in which the breast”, “(200 ng/mL) and LEFTY Antagonist (sc7408p) increasing in dose from 1x to 256x (x=25” for “(200”

mammary epithelial cells [2] = assay: 3D organotypic mammary organoid formation; assay type: cell-based, mouse; conditions: Wnt-dependent organoid culture
Protocol: FIGS. 8A-8D. Autocrine and paracrine effects of NODAL and LEFTY1 in mammary epithelial cell populations. […] The sorted cells were grown in the 3D organotypic assays to test their organoid formation potential in the presence of NODAL. […] Each dot represents an organoid (n=3). […] Data are represented as median±S.D. Statistical analysis, One-way ANOVA with Dunnet's adjustment, **p<0.01.
FIGS. 9A-9F. Opposing effects of LEFTY1 and BMP7 in mammary organoid formation. […] Data are represented as median±S.D. Statistical analysis, one-way ANOVA with Dunnet's adjustment, *p<0.05; **p<0.01; ***p<0.001.
Since LEFTY1 and BMP7 were able to affect the branching of mammary glands, we hypothesized that the LEFTY1/BMP7 signaling axis may affect the proliferation of mammary epithelial cells. We exposed freshly dissociated mammary epithelial cells to NODAL, LEFTY1, BMP7 and CRIPTO-1 in a modified Wnt-dependent in vitro organoid culture system that was optimized for progenitor cell propagation (Zeng & Nusse, Cell Stem Cell 6, 568-577 (2010) and Jamieson et al., Development 144, 1065-1071 (2017)). In Xenopus, Wnt signaling controls the expression of Nodal and Cripto-1 during gastrulation. Consistent with the evolutionary conservation of the interaction between the Nodal and Wnt pathways (Branford et al., Curr Biol 12, 2136-2141 (2002)), NODAL had no effect on organoid formation in our Wnt-driven culture system (FIG. 8A).
In organoid cultures, the basal cells give rise to mixed phenotype colonies of luminal and basal cells. To prevent the formation of LEFTY1-expressing cells during organoid formation, genetic knockdown of LEFTY1 was done. To knock-down mouse LEFTY1, pSICO-R lentiviral vector was used (Ventura, PNAS, 2004). Different shRNAs were designed and cloned into pSICO-R. The target sequences of the shRNAs cloned were GGACAAGGCTGATGTGGAA (SEQ ID NO: 14) and GCAGGTTCCTGGTGTCAGA (SEQ ID NO: 15). The efficiency of knock-down was tested by transfecting HEK293T cells with pSICO-R-shLEFTY1 constructs with pEGFP-C3-LEFTY1 at 1:4 and 1:20 ratio. Decrease on GFP signal was used to calculate the percentage of inhibition of the shLEFTY sequences. […] (p<0.001 and p<0.01, respectively) (FIGS. 8C-8D and FIGS. 9E-9F).

| Molecule | frequency of ductal outgrowths (mammary epithelial cells [1]) | pSMAD5 status (pSMAD5) | organoid formation (frequency, number of colonies) (mammary epithelial cells [2]) | organoid size (mammary epithelial cells [2]) |
| --- | --- | --- | --- | --- |
| B1 | significantly increased | reduces | increased the number of colonies |  |
| B2 | did not affect | activates pSMAD5 | significantly decreased | significantly decreased |
